# Source: patent US8603949B2, “Libraries of optimized cytochrome P450 enzymes and the optimized P450 enzymes” (California Institute of Technology, priority 2003, dated 2013)
# B1: Chimera F37202: chimera of the CYP102A1/A2/A3 seven-crossover library (protein)
# chain: KQASAIPQPKTYGPLKNLPHLEKEQLSQSLWRIADELGPIFRFDFPGVSSVFVSGHNLVAEVCDEERFDKSIEGALEKVRAFSGDGLATSWTHEPNWRKAHNILMPTFSQRAMKDYHEKMVDIATQLIQKWSRLNPNEEIDVADDMTRLTLDTIGLCGFNYRFNSFYRDQPHPFITSMVRALDEAMNKLQRANPDDPAYDENKRQFQEDIKVMNDLVDRMIAERKANPDENIKDLLSLMLYAKDPVTGETLDDENIRYQIITFLIAGHETTSGLLSFAIYCLLTHPEKLKKAQEEADRVLTDDTPEYKQIQQLKYIRMVLNETLRLYPTAPAFSLYAKEDTVLGGEYPISKGQPVTVLIPKLHRDQNAWGPDAEDFRPERFEDPSSIPHHAYKPFGNGQRACIGMQFALQEATMVLGLVLKHFELINHTGYELKIKEALTIKPDDFKITVKPRKTAAINVQRKEQA
# modifications: Chimeric Cytochrome P450 heme group polypeptide sequence from CYP102A1 (Bacillus megaterium); CYP102A2 (Bacillus subtilis) and CYP102A3 (Bacillus subtilis)
# notes: chimera of the CYP102A1/A2/A3 seven-crossover library
# B2: Chimera F3748: chimera of the CYP102A1/A2/A3 seven-crossover library (protein)
# chain: KQASAIPQPKTYGPLKNLPHLEKEQLSQSLWRIADELGPIFRFDFPGVSSVFVSGHNLVAEVCDEERFDKSIEGALEKVRAFSGDGLATSWTHEPNWRKAHNILMPTFSQRAMKDYHEKMVDIATQLIQKWSRLNPNEEIDVADDMTRLTLDTIGLCGFNYRFNSFYRDQPHPFITSMVRALDEAMNKLQRANPDDPAYDENKRQFQEDIKVMNDLVDRMIAERKANPDENIKDLLSLMLYAKDPVTGETLDDENIRYQIITFLIAGHETTSGLLSFATYFLLKHPDKLKKAYEEVDRVLTDAAPTYKQVLELTYIRMILNESLRLWPTAPAFSLYAKEDTVLGGEYPISKGQPVTVLIPKLHRDQNAWGPDAEDFRPERFEDPSSIPHHAYKPFGNGQRACIGMQFALQEATMVLGLVLKHFELINHTGYELKIKEALTIKPDDFKITVKPRKTAAINVQRKEQA
# modifications: Chimeric Cytochrome P450 heme group polypeptide sequence from CYP102A1 (Bacillus megaterium); CYP102A2 (Bacillus subtilis) and CYP102A3 (Bacillus subtilis)
# notes: as for B1
# B3: A3: third parent P450 of the seven-crossover library (protein, listed as Bacillus subtilis)
# chain: KQASAIPQPKTYGPLKNLPHLEKEQLSQSLWRIADELGPIFRFDFPGVSSVFVSGHNLVAEVCDEKRFDKNLGKGLQKVREFGGDGLATSWTHEPNWQKAHRILLPSFSQKAMKGYHSMMLDIATQLIQKWSRLNPNEEIDVADDMTRLTLDTIGLCGFNYRFNSFYRDSQHPFITSMLRALKEAMNQSKRLGLQDKMMVKTKLQFQKDIEVMNSLVDRMIAERKANPDENIKDLLSLMLYAKDPVTGETLDDENIRYQIITFLIAGHETTSGLLSFAIYCLLTHPEKLKKAQEEADRVLTDDTPEYKQIQQLKYIRMVLNETLRLYPTAPAFSLYAKEDTVLGGEYPISKGQPVTVLIPKLHRDQNAWGPDAEDFRPERFEDPSSIPHHAYKPFGNGQRACIGMQFALQEATMVLGLVLKHFELINHTGYELKIKEALTIKPDDFKITVKPRKTAAINVQRKEQA
# B4: Chimera F37233: chimera of the CYP102A1/A2/A3 seven-crossover library (protein)
# chain: KQASAIPQPKTYGPLKNLPHLEKEQLSQSLWRIADELGPIFRFDFPGVSSVFVSGHNLVAEVCDEKRFDKNLGKGLQKVREFGGDGLATSWTHEPNWQKAHRILLPSFSQKAMKGYHSMMLDIAVQLIQKWARLNPNEAVDVPGDMTRLTLDTIGLCGFNYRFNSYYRDQPHPFITSMVRALDEAMNKLQRANPDDPAYDENKRQFQEDIKVMNDLVDSIIAERRANGDQDEKDLLARMLNVEDPETGEKLDDENIRFQIITFLIAGHETTSGLLSFATYFLLKHPDKLKKAYEEVDRVLTDAAPTYKQVLELTYIRMILNESLRLWPTAPAFSLYAKEDTVLGGEYPLEKGDELMVLIPQLHRDKTIWGDDVEEFRPERFENPSAIPQHAFKPFGNGQRACIGQQFALQEATMVLGLVLKHFELINHTGYELKIKEALTIKPDDFKITVKPRKTAAINVQRKEQA
# modifications: Chimeric Cytochrome P450 heme group polypeptide sequence from CYP102A1 (Bacillus megaterium); CYP102A2 (Bacillus subtilis) and CYP102A3 (Bacillus subtilis)
# notes: as for B1
# Assay: Library plate screen on five test substrates (4-AAP, 12-pNCA)
# Type: biochemical
# Conditions: seven-crossover library, cell lysate, 20 mM H2O2
# Experimental: These library plates were replicated and grown in 96 deep-well plates in 900 μL of LB media with 100 μg/ml ampicillin overnight at 30° C. and 250 rpm. 150 μL of this was then transferred to 850 μL of induction media (TB-media with final concentrations of 100 μg/ml ampicillin, 25 μg/ml thiamine, 0.5 mM δ-aminolevulinic acid and 0.6 mM IPTG). These were grown for 20-24 hours at 25° C. and 190 rpm, harvested by centrifugation at 5000×g for 8 minutes and frozen at -20° C. for at least 24 hours. Cells were resuspended using a pipetting robot (Multimek 96, Beckman) and lysed in 400 μL of Epps or Tris buffer (100 mM, pH 8.2) containing 0.8 mg/ml lysozyme and 2 units/mL DNaseI for 1 hour at 37° C. Plates were then spun for 8 minutes at 5000×g and 4° C. to pellet cell debris. 80 μL of lysate was transferred into 4 separate 96 well plates for each library plate. […] On one plate, high -throughput carbon monoxide spectroscopy was done in order to assess relative amounts of P450 (Otey, C. R. High-throughput carbon monoxide binding assay for cytochromes P450. In Directed Enzyme Evolution: Screening and Selection Methods, F. H. Arnold and […]. 137-139 (2003)) with 0.1 M sodium hydrosulfite being used in place of 0.4 M. The other three plates were used to assay activity on different substrates. Examples of assays that have been or could be used include the 4-AAP (Otey, C. R., and Joern, J. M. High-throughput screen for aromatic hydroxylation. In Directed Enzyme Evolution: Screening and Selection Methods, F. H. Arnold and […]. 141-148 (2003)), 12-pNCA (Schwaneberg et al., Anal. Biochem., 269:359-366 (1999), NBP assay ([…], et al., J Biomol Screen, 9:141-146 (2004)), 7-ethoxyresorufin (Sieber et al., Nat Biotechnol., 19:456-460 (2001)), vivid substrate assays (Marks et al., Assay Drug Dev Technol 1, 73-81 (2002); Marks et al., AAPS PharmSci 5, E18 (2003)), and purpald assays (Peters et al., J Am Chem Soc 125:13442-13450 (2003)). Since the heme domains were being used, the hydrogen peroxide was used to drive the reactions via the peroxide shunt (Cirino, P. C., and Arnold, F. H., Advanced Synthesis & Catalysis 344, 932-937 (2002)). The 4-AAP assay detects phenol-like compounds and consists of the addition of 40 μL of a 3.5× substrate solution (containing substrate concentrations dependent for each substrate) to 80 μL of lysate. […] Then a 7×(140 mM) H2O2 hydrogen peroxide solution was added resulting in a final concentration of 20 mM hydrogen peroxide. The reaction was mixed and left at room temperature without shaking for two hours and then quenched with 140 μL of 0.1 m NaOH and 4 M Urea. 38 μL of 0.6% 4-aminoantipyrine was added followed by blanking of the 96-well plate reader at 500 nm. 38 μL of 0.6% potassium persulfate was added and after 20 minutes the A500 was read. […]
row,Molecule,"activity on test substrates incl. novel substrates (diphenyl ether, allyloxy-benzene)"
1,B1,activity that is novel
2,B2,activity that is novel
3,B3,no activity towards any of the substrates tested
4,B4,activity that is novel
